Laboratory results: paper PMC6804253, “Predicting and Experimentally Validating Hot-Spot Residues at Protein–Protein Interfaces” (ACS Chemical Biology, 2019)
Like-named read-outs stand apart in the source and are kept apart here.

Legend:
[1] = tested on: PPIs of the SKEMPI data set (by PDBID); assay: SKEMPI experimental ΔΔG, single mutations to alanine; type: binding; details: for sk_class (class of the SKEMPI experimental ΔΔG) / sk_class (class of SKEMPI experimental ΔΔG): class by ΔΔG threshold 4.184 kJ/mol, ref SKEMPI; for sk_class: class of the SKEMPI experimental ΔΔG
[2] = tested on: PPIs of the SKEMPI data set (by PDBID); details: single mutation to alanine, ref SKEMPI, cited from earlier work; for sk_ddG_kJ (SKEMPI experimental ΔΔG, mutation to alanine): r_group DERKH
[3] = PPI given by PDBID, sheet sortedByGroup
[4] = PPI given by PDBID, sheet sortedByGroup, r_group FAMILYVW
[5] = complex given by PDBID, mutation by mut_pdb

| Molecule | sk_class (class of SKEMPI experimental ΔΔG) [1] | sk_ddG_kJ (SKEMPI experimental ΔΔG) [2, 4] [kJ] | further results |
| --- | --- | --- | --- |
| 1A4Y EA287A (protein, UniProt P13489 2-461, looked up, variant E287A) Ribonuclease inhibitor: SLDIQSLDIQCEELSDARWAELLPLLQQCQVVRLDDCGLTEARCKDISSALRVNPALAELNLRSNELGDVGVHCVLQGLQTPSCKIQKLSLQNCCLTGAGCGVLSSTLRTLPTLQELHLSDNLLGDAGLQLLCEGLLDPQCRLEKLQLEYCSLSAASCEPLASVLRAKPDFKELTVSNNDINEAGVRVLCQGLKDSPCQLEALKLESCGVTSDNCRDLCGIVASKASLRELALGSNKLGDVGMAELCPGLLHPSSRLRTLWIWECGITAKGCGDLCRVLRAKESLKALSLAGNELGDEGARLLCETLLEPGCQLESLWVKSCSFTAACCSHFSSVLAQNRFLLELQISNNRLEDAGVRELCQGLGQPGSVLRVLWLADCDVSDSSCSSLAATLLANHSLRELDLSNNCLGDAGILQLVESVRQPGCLLEQLVLYDIYWSEEMEDRLQALEKDKPSLRVIS | – | – | sk_class (class of the SKEMPI experimental ΔΔG) [1]: Neutral (neutral (little effect) 4.184 kJ/mol < ΔΔG > −4.184 kJ/mol); sk_ddG_kJ (SKEMPI experimental ΔΔG, mutation to alanine) [2, 3]: 0.38 kJ |
| 1A4Y KA320A (protein, UniProt P13489 2-461, looked up, variant K320A) Ribonuclease inhibitor: SLDIQSLDIQCEELSDARWAELLPLLQQCQVVRLDDCGLTEARCKDISSALRVNPALAELNLRSNELGDVGVHCVLQGLQTPSCKIQKLSLQNCCLTGAGCGVLSSTLRTLPTLQELHLSDNLLGDAGLQLLCEGLLDPQCRLEKLQLEYCSLSAASCEPLASVLRAKPDFKELTVSNNDINEAGVRVLCQGLKDSPCQLEALKLESCGVTSDNCRDLCGIVASKASLRELALGSNKLGDVGMAELCPGLLHPSSRLRTLWIWECGITAKGCGDLCRVLRAKESLKELSLAGNELGDEGARLLCETLLEPGCQLESLWVASCSFTAACCSHFSSVLAQNRFLLELQISNNRLEDAGVRELCQGLGQPGSVLRVLWLADCDVSDSSCSSLAATLLANHSLRELDLSNNCLGDAGILQLVESVRQPGCLLEQLVLYDIYWSEEMEDRLQALEKDKPSLRVIS | – | – | sk_class (class of the SKEMPI experimental ΔΔG) [1]: Neutral (neutral (little effect) 4.184 kJ/mol < ΔΔG > −4.184 kJ/mol); sk_ddG_kJ (SKEMPI experimental ΔΔG, mutation to alanine) [2, 3]: -1.30 kJ |
| 1IAR IA5A (protein, UniProt P05112 25-153, looked up, variant I5A) Interleukin-4: HKCDATLQEIIKTLNSLTEQKTLCTELTVTDIFAASKNTTEKETFCRAATVLRQFYSHHEKDTRCLGATAQQFHRHKQLIRFLKRLDRNLWGLAGLNSCPVKEANQSTLENFLERLKTIMREKYSKCSS | Positive (positive (a hot residue) ΔΔG ≥ 4.184 kJ/mol) | 4.90 | – |
| 1IAR FA82A (protein, UniProt P05112 25-153, looked up, variant F82A) Interleukin-4: HKCDITLQEIIKTLNSLTEQKTLCTELTVTDIFAASKNTTEKETFCRAATVLRQFYSHHEKDTRCLGATAQQFHRHKQLIRALKRLDRNLWGLAGLNSCPVKEANQSTLENFLERLKTIMREKYSKCSS | Neutral (neutral (little effect) 4.184 kJ/mol < ΔΔG > −4.184 kJ/mol) | -0.38 | – |
| 1IAR WA91A (protein, UniProt P05112 25-153, looked up, variant W91A) Interleukin-4: HKCDITLQEIIKTLNSLTEQKTLCTELTVTDIFAASKNTTEKETFCRAATVLRQFYSHHEKDTRCLGATAQQFHRHKQLIRFLKRLDRNLAGLAGLNSCPVKEANQSTLENFLERLKTIMREKYSKCSS | Neutral (neutral (little effect) 4.184 kJ/mol < ΔΔG > −4.184 kJ/mol) | 3.05 | – |
| 1IAR IA11A (protein, UniProt P05112 25-153, looked up, variant I11A) Interleukin-4: HKCDITLQEIAKTLNSLTEQKTLCTELTVTDIFAASKNTTEKETFCRAATVLRQFYSHHEKDTRCLGATAQQFHRHKQLIRFLKRLDRNLWGLAGLNSCPVKEANQSTLENFLERLKTIMREKYSKCSS | Neutral (neutral (little effect) 4.184 kJ/mol < ΔΔG > −4.184 kJ/mol) | 0.29 | – |
| 1EMV IA53A (protein, UniProt P13479 1-86, looked up, variant I53A) Colicin-E9 immunity protein: MELKHSISDYTEAEFLQLVTTICNADTSSEEELVKLVTHFEEMTEHPSGSDLAYYPKEGDDDSPSGIVNTVKQWRAANGKSGFKQG | Neutral (neutral (little effect) 4.184 kJ/mol < ΔΔG > −4.184 kJ/mol) | 3.56 | – |
| 1EMV YA55A (protein, UniProt P13479 1-86, looked up, variant Y55A) Colicin-E9 immunity protein: MELKHSISDYTEAEFLQLVTTICNADTSSEEELVKLVTHFEEMTEHPSGSDLIYAPKEGDDDSPSGIVNTVKQWRAANGKSGFKQG | Positive (positive (a hot residue) ΔΔG ≥ 4.184 kJ/mol) | 19.41 | – |
| 1EMV YA54A (protein, UniProt P13479 1-86, looked up, variant Y54A) Colicin-E9 immunity protein: MELKHSISDYTEAEFLQLVTTICNADTSSEEELVKLVTHFEEMTEHPSGSDLIAYPKEGDDDSPSGIVNTVKQWRAANGKSGFKQG | Positive (positive (a hot residue) ΔΔG ≥ 4.184 kJ/mol) | 20.21 | – |
| 1EMV PA56A (protein, UniProt P13479 1-86, looked up, variant P56A) Colicin-E9 immunity protein: MELKHSISDYTEAEFLQLVTTICNADTSSEEELVKLVTHFEEMTEHPSGSDLIYYAKEGDDDSPSGIVNTVKQWRAANGKSGFKQG | – | – | sk_class [1]: Positive (positive (a hot residue) ΔΔG ≥ 4.184 kJ/mol); sk_ddG_kJ (SKEMPI experimental ΔΔG) [2, 5]: 5.19 kJ |
| 1EMV VA68A (protein, UniProt P13479 1-86, looked up, variant V68A) Colicin-E9 immunity protein: MELKHSISDYTEAEFLQLVTTICNADTSSEEELVKLVTHFEEMTEHPSGSDLIYYPKEGDDDSPSGIANTVKQWRAANGKSGFKQG | Positive (positive (a hot residue) ΔΔG ≥ 4.184 kJ/mol) | 7.78 | – |
| 1EMV GA49A (protein, UniProt P13479 1-86, looked up, variant G49A) Colicin-E9 immunity protein: MELKHSISDYTEAEFLQLVTTICNADTSSEEELVKLVTHFEEMTEHPSASDLIYYPKEGDDDSPSGIVNTVKQWRAANGKSGFKQG | – | – | sk_class [1]: Positive (positive (a hot residue) ΔΔG ≥ 4.184 kJ/mol); sk_ddG_kJ (SKEMPI experimental ΔΔG) [2, 5]: 6.23 kJ |
| 1DAN GT43A (protein, UniProt P13726 33-251, looked up, variant G43A, extracellular domain) extracellular domain: SGTTNTVAAYNLTWKSTNFKTILEWEPKPVNQVYTVQISTKSADWKSKCFYTTDTECDLTDEIVKDVKQTYLARVFSYPAGNVESTGSAGEPLYENSPEFTPYLETNLGQPTIQSFEQVGTKVNVTVEDERTLVRRNNTFLSLRDVFGKDLIYTLYYWKSSSSGKKTAKTNTNEFLIDVDKGENYCFSVQAVIPSRTVNRKSTDSPVECMGQEKGEFRE | – | – | sk_class [1]: Neutral (neutral (little effect) 4.184 kJ/mol < ΔΔG > −4.184 kJ/mol); sk_ddG_kJ (SKEMPI experimental ΔΔG) [2, 5]: 0.29 kJ |
| 1DAN PU92A (protein, UniProt P13726 33-251, looked up, variant P92A, extracellular domain) extracellular domain: SGTTNTVAAYNLTWKSTNFKTILEWEPKPVNQVYTVQISTKSGDWKSKCFYTTDTECDLTDEIVKDVKQTYLARVFSYPAGNVESTGSAGEALYENSPEFTPYLETNLGQPTIQSFEQVGTKVNVTVEDERTLVRRNNTFLSLRDVFGKDLIYTLYYWKSSSSGKKTAKTNTNEFLIDVDKGENYCFSVQAVIPSRTVNRKSTDSPVECMGQEKGEFRE | – | – | sk_class [1]: Neutral (neutral (little effect) 4.184 kJ/mol < ΔΔG > −4.184 kJ/mol); sk_ddG_kJ (SKEMPI experimental ΔΔG) [2, 5]: -0.79 kJ |
| 1JRH YI49A (protein, UniProt P15260 18-245, looked up, variant Y49A, extracellular domain) extracellular domain: EMGTADLGPSSVPTPTNVTIESYNMNPIVYWEYQIMPQVPVFTVEVKNAGVKNSEWIDACINISHHYCNISDHVGDPSNSLWVRVKARVGQKESAYAKSEEFAVCRDGKIGPPKLDIRKEEKQIMIDIFHPSVFVNGDEQEVDYDPETTCYIRVYNVYVRMNGSEIQYKILTQKEDDCDEIQCQLAIPVSSLNSQYCVSAEGVLHVWGVTTEKSKEVCITIFNSSIKG | Positive (positive (a hot residue) ΔΔG ≥ 4.184 kJ/mol) | 15.31 | – |
| 1JRH WI82A (protein, UniProt P15260 18-245, looked up, variant W82A, extracellular domain) extracellular domain: EMGTADLGPSSVPTPTNVTIESYNMNPIVYWEYQIMPQVPVFTVEVKNYGVKNSEWIDACINISHHYCNISDHVGDPSNSLAVRVKARVGQKESAYAKSEEFAVCRDGKIGPPKLDIRKEEKQIMIDIFHPSVFVNGDEQEVDYDPETTCYIRVYNVYVRMNGSEIQYKILTQKEDDCDEIQCQLAIPVSSLNSQYCVSAEGVLHVWGVTTEKSKEVCITIFNSSIKG | Positive (positive (a hot residue) ΔΔG ≥ 4.184 kJ/mol) | 18.12 | – |
| 1JRH VI51A (protein, UniProt P15260 18-245, looked up, variant V51A, extracellular domain) extracellular domain: EMGTADLGPSSVPTPTNVTIESYNMNPIVYWEYQIMPQVPVFTVEVKNYGAKNSEWIDACINISHHYCNISDHVGDPSNSLWVRVKARVGQKESAYAKSEEFAVCRDGKIGPPKLDIRKEEKQIMIDIFHPSVFVNGDEQEVDYDPETTCYIRVYNVYVRMNGSEIQYKILTQKEDDCDEIQCQLAIPVSSLNSQYCVSAEGVLHVWGVTTEKSKEVCITIFNSSIKG | Positive (positive (a hot residue) ΔΔG ≥ 4.184 kJ/mol) | 6.19 | – |
| 1JRH GI50A (protein, UniProt P15260 18-245, looked up, variant G50A, extracellular domain) extracellular domain: EMGTADLGPSSVPTPTNVTIESYNMNPIVYWEYQIMPQVPVFTVEVKNYAVKNSEWIDACINISHHYCNISDHVGDPSNSLWVRVKARVGQKESAYAKSEEFAVCRDGKIGPPKLDIRKEEKQIMIDIFHPSVFVNGDEQEVDYDPETTCYIRVYNVYVRMNGSEIQYKILTQKEDDCDEIQCQLAIPVSSLNSQYCVSAEGVLHVWGVTTEKSKEVCITIFNSSIKG | – | – | sk_class [1]: Positive (positive (a hot residue) ΔΔG ≥ 4.184 kJ/mol); sk_ddG_kJ (SKEMPI experimental ΔΔG) [2, 5]: 18.33 kJ |
